Assay [1] concerns the target T1, IL-2 receptor IL-2Rα/β/γ on human peripheral blood Treg cells (human, UniProt P01589 22-272; P14784 27-551; P31785 23-369).
T1 sequence (looked up) 1: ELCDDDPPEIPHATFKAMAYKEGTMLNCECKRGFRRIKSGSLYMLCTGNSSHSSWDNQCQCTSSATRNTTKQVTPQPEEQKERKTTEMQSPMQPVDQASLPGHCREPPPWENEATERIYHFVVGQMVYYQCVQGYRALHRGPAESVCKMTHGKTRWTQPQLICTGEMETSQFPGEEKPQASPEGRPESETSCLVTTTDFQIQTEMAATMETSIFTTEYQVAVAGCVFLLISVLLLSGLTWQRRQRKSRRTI
T1 sequence (looked up) 2: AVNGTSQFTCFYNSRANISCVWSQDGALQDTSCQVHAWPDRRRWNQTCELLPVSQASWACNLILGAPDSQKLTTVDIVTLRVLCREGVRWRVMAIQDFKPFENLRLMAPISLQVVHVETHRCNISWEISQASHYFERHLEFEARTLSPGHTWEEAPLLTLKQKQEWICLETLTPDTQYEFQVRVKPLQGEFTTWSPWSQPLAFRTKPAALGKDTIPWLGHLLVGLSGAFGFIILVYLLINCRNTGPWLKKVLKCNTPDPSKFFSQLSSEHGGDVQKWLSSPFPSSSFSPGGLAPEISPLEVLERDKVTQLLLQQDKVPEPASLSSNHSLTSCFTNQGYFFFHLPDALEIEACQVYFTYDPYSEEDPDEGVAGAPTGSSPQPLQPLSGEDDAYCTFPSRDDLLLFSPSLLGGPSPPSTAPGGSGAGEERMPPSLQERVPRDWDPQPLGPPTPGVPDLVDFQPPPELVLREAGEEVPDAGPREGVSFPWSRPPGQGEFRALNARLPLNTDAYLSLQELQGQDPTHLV
T1 sequence (looked up) 3: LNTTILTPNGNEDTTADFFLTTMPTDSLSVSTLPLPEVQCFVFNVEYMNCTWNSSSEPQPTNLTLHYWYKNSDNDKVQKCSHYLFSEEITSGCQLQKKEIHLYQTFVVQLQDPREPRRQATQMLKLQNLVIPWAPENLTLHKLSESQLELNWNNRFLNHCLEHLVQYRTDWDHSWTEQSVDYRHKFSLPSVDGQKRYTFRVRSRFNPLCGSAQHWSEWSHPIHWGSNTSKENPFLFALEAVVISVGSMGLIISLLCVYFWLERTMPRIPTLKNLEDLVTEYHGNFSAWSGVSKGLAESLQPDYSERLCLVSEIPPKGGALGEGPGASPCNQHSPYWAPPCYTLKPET
Nature of the assay: cell-based or functional assay.

Assay [2] concerns the target T2, his-tagged human IL-2Rα recombinant protein (SinoBiological, Cat #10165-H08H) (human, UniProt P01589 22-213).
T2 construct: Bought protein; also called IL-2Rα (His Tag)
T2 sequence: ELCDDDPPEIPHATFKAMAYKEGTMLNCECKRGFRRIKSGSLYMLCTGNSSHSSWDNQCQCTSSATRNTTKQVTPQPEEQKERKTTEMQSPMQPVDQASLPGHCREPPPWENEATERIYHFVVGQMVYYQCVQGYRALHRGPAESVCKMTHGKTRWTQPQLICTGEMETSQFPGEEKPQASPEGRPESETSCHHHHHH
Nature of the assay: BLI (Octet RED96e), His-tagged IL-2Rα on HIS1K sensor; column printed as 'affinity (nM)'.

Data on one molecule can be found in patent publication US20220056094A1 (JIANGSU HENGRUI MEDICINE, published 2022).

B1: IL-2-24 (N26Q/N29S/N88R) (ligand)
chain: MAPTSSSTKKTQLQLEHLLLDLQMILQGISNYKNPKLTRMLTFKFYMPKKATELKHLQCLEEELKPLEEVLNLAQSKNFHLRPRDLISRINVIVLELKGSETTFMCEYADETATIVEFLNRWITFAQSIISTLT
Regarding B1, in assay [1], the “EC50 (STAT5 phosphorylation in human Treg cells)” value was determined as 0.209 nM and the “relative biological activity (STAT5 phosphorylation in human Treg cells)” value turned out to be 0.2%. For the same molecule, the Kd in assay [2] worked out at 11.8 nM.

For orientation: Kd means the free concentration of one partner at which half of the binding sites on the other are occupied at equilibrium, for simple one-to-one binding.
